# The supplement of paper PMC12042874
# ± gives the uncertainty stated by the source.
# Assay: amyloid nucleation score (Sup35N fusion, yeast selection) (log enrichment); library NNK2; higher = more nucleation; inactive = no reads after selection
# Method in brief: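 Yeast lacking psi expressed peptides of 20 random codons fused to Sup35N, received 100 μM copper sulfate for 24 hours, and were then grown for 7 days at 30°C on medium lacking adenine and uracil. Illumina sequencing of input and output plasmid inserts provided the reads. Nucleation scores are DiMSum log enrichments of output over input, centred on the mode of non-aggregating sequences. Any sequence with under 100 input reads was excluded.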
row,Substance,amyloid nucleation score
1,TKSGCRGIGHSSVVSS,1.19 ± 0.37
2,TLAWGSGELTTLTADEDLPS,0.58 ± 0.19
3,TLAYMNGVA,-0.928 ± 0.63
4,TLCLMVVFKSRYCSFRIHMM,0.21 ± 1
5,TLDIALKGG,0.271 ± 0.25
6,TLFLSMLLMASSCYMTCCGD,-0.119 ± 0.55
7,TLGSLLLLMSWVEGLQKHLI,0.888 ± 0.48
8,TLHCRSILGELLYVDMVKDD,-0.297 ± 0.46
9,TLMIYCFFSGFLKGVWMM,0.053 ± 0.8
10,TLMKVRVYSSYGKVHVGSLA,5.03 ± 0.08
11,TLNTNMRSLLRI,inactive
12,TLSTGIFLLHLAYSSLSIDS,0.637 ± 0.35
13,TLTKKLHIGMLYPYHTLMLR,-0.596 ± 0.76
14,TLVHSKF,3.01 ± 0.089
15,TLVNCVSMWWALHSVANGNG,3.3 ± 0.11
16,TLVVRGHC,2.14 ± 0.11
17,TLYDGWLVGPVERRFVIRAL,1.08 ± 0.21
18,TLYMFMPMLFNVIPEVRWPP,9.03 ± 0.071
19,TLYRPMTIMFMRVHHEVRWF,6.195 ± 0.04
20,TMKWLCN,4.69 ± 0.054
21,TMNIKLWGAGTRRMFEMEPG,2.35 ± 0.22
22,TMQIFMKSMINSGICSTYHL,3.47 ± 0.08

row,Substance,amyloid nucleation score
1,TMYWTAMMISGDLACQIGSR,6.127 ± 0.046
2,TNATSGGHMLMIYEDFNVYL,2.49 ± 0.069
3,TNCINM,5.49 ± 0.055
4,TNCSIMGTFSYFNDCSLGGT,5.247 ± 0.051
5,TNEAIEMS,inactive
6,TNIFR,-0.599 ± 1
7,TNLMAFLRPFAVVTRND,-0.355 ± 0.76
8,TNRIGFFLFCTAV,-0.049 ± 0.76
9,TNSDSSTQKVIVMSLNAVVP,6.11 ± 0.049
10,TNSMNGFFFR,-1.81 ± 1
11,TNWVDWESYISCGGNGFGGC,-0.92 ± 0.39
12,TPAWCYPTGIGLIPPEWLGQ,0.605 ± 0.23
13,TPDGIRLSVAHCS,0.764 ± 0.24
14,TPFGTVECTQLLLSTSRWLF,-0.26 ± 1
15,TPLLSWVTLFCCLGSPCLGT,0.176 ± 0.76
16,TPPWQGSDWCGNHCNWQGPM,0.247 ± 0.8
17,TPWSSVWSVALSGARMGPRS,3.71 ± 0.079
18,TPYGFSFRTRYMKQADLALS,-0.315 ± 0.33
19,TQFISFRYYHNVDEIHYVVN,inactive
20,TQIFYSLRILLVDKLVSCGA,-0.787 ± 0.39
21,TQRVGGIRW,0.105 ± 0.24
22,TRCFQILPCYRI,-0.624 ± 0.76

row,Substance,amyloid nucleation score
1,TRCKGHYVWSLQSFRCSIVK,-0.512 ± 0.78
2,TRDCLYFVLLILIIYLFGLR,3.12 ± 0.14
3,TRDIELWLGWNRKEVCVLLE,inactive
4,TRLDVQLGHGIGSV,0.092 ± 1.1
5,TRQKACMISKASPLGSSEYA,inactive
6,TRRWKALRP,0.794 ± 0.2
7,TSCFLLILCLQMKCTSFTSS,2.18 ± 0.11
8,TSDWRLYFRLTDVVIGLW,1.86 ± 0.083
9,TSFCTSVIGIVIHQDFAVDG,5.574 ± 0.045
10,TSFFPIILKRVPSIKLGTRK,inactive
11,TSGDCYMNGILNNGWGQ,-1.42 ± 0.78
12,TSKRVFSRVESGTQVLGNEG,-0.053 ± 0.5
13,TSLFI,0.487 ± 0.6
14,TSPGTGIVGDIYLHYIFVKW,0.327 ± 0.46
15,TSQLRMDGSSILMAHLKCYR,0.441 ± 0.26
16,TSRDWCLDVPWKSHYYEVKY,-0.518 ± 0.48
17,TSRKGNSSHL,-1.54 ± 0.75
18,TSRRHYIVSVNLMK,inactive
19,TSRYTHNCMPIDCMIMHMGI,1.77 ± 0.14
20,TSSTTGSYLWEDEDYSYNFF,1.68 ± 0.12
21,TSVIGKSGPRYLFLEC,0.299 ± 0.8
22,TSVNALFRWPRLFSYRREPV,0.202 ± 0.79

row,Substance,amyloid nucleation score
1,TSVYPRGYFPVSCACYFLLE,-1.3 ± 0.48
2,TTDRTDCLSFQLNFTDMKRG,6.08 ± 0.073
3,TTHLLFLFLALKNNPRTILT,-0.294 ± 1.1
4,TTPLTRRFRRFHVW,1.02 ± 0.26
5,TTRRC,-0.43 ± 0.32
6,TTSVTGQC,-1.09 ± 0.55
7,TVAVRSPIT,-0.686 ± 0.44
8,TVCWSLFDDCSFYFRCNAFE,8.42 ± 0.042
9,TVDNPSNSFTFFRVYQLYVR,3.11 ± 0.14
10,TVFFF,2.6 ± 0.11
11,TVFFGLVCRGPVKKDM,2.1 ± 0.17
12,TVFRFNIYDYFFVM,4.27 ± 0.057
13,TVFVWKPRVGKN,4.716 ± 0.044
14,TVFWSNLVRVPCRSDTSQYD,0.148 ± 1
15,TVFYIYMGQDDG,5.12 ± 0.1
16,TVGIVGFHVVVRELWVGVRR,6.868 ± 0.066
17,TVGLIRLRLSILYFGPLDSV,0.115 ± 0.56
18,TVHCGMQWWLVARRPRNEAQ,1.25 ± 0.38
19,TVIRRIYFRRPGRSNMSCTN,-0.067 ± 0.65
20,TVLWSRLDPPPRERKL,1.13 ± 0.34
21,TVMKDYMALESSSYVNPMLI,-0.251 ± 0.76
